One test deals with T1, PIAL2-Myc (Arabidopsis thaliana, UniProt F4JYG0 1-760).
T1 construct: not shown: C-terminal 9XMYC tag and BLRP (pEG302 vector)
T1 sequence: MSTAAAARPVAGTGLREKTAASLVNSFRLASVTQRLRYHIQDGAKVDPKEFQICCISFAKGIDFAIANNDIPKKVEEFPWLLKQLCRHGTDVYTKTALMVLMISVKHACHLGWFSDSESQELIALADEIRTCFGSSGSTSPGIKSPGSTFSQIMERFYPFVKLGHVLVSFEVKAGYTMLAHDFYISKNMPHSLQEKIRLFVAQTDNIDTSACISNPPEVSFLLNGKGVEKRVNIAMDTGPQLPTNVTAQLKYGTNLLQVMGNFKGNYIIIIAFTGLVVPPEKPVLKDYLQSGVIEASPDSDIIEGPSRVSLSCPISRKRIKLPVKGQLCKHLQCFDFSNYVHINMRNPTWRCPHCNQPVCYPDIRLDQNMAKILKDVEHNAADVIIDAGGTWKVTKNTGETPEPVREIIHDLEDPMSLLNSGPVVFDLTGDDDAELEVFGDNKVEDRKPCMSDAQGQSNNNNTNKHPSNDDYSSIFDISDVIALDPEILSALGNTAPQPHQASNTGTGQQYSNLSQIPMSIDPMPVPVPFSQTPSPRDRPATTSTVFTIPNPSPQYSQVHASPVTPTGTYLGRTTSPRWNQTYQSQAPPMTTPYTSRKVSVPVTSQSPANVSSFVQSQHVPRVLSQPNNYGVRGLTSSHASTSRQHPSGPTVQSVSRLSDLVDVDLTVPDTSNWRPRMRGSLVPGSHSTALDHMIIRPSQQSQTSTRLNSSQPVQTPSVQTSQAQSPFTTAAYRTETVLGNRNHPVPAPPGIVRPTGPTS
In words: co-IP, anti-FLAG, crossed lines. As for the experimental part: The Co-IP assays in this study were performed by following previous protocol (see e.g., Wang, Science, 2016) with some modifications. 2 grams of 2-week-old seedling tissue were collected from Arabidopsis transgenic lines: JMJ14-FLAG×TRB1-Myc and TRB1-Myc; MORC6-FLAG×PIAL2-Myc and PIAL2-Myc. The samples were ground into fine powder with liquid nitrogen, resuspended with 10 mL IP buffer, and incubate 20 minutes at 4° C. The lysate was centrifuged and filtered through Miracloth for two times, and the supernatant was incubated with 30 μL anti-FLAG M2 Affinity Gel (Millipore) for 2 hours at 4° C. The anti-FLAG beads were washed with IP buffer for a total of 5 times, and the protein was eluted with 40 μL elution buffer (IP buffer containing 100 μg/mL 3×FLAG peptide as final concentration). The supernatant was mixed with 5×SDS loading buffer and subject to Western blot.

Test [1] addresses T2, AT5G08450.1 HDC1 (Arabidopsis thaliana).
T2 construct: Endogenous protein found by mass spectrometry
In words: IP-MS rep 2. The gist of the method:
(§1)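 Ten grams of unopened floral buds from Col-0 wild type and FLAG-tagged transgenic Arabidopsis lines were ground in liquid nitrogen, homogenised in 25 mL IP buffer and filtered through Miracloth. Lysates were incubated with 250 μL anti-FLAG M2 magnetic beads at 4° C for 2 hours, washed and eluted with TBS containing 250 μg/mL 3×FLAG peptides. Eluted proteins were precipitated with trichloroacetic acid and analysed by mass spectrometry to give peptide counts for co-purified proteins.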

Test [2] deals with T3, AT5G67580.1 TRB2 (Arabidopsis thaliana, UniProt Q9FJW5 1-299).
T3 construct: Endogenous protein found by mass spectrometry
T3 sequence: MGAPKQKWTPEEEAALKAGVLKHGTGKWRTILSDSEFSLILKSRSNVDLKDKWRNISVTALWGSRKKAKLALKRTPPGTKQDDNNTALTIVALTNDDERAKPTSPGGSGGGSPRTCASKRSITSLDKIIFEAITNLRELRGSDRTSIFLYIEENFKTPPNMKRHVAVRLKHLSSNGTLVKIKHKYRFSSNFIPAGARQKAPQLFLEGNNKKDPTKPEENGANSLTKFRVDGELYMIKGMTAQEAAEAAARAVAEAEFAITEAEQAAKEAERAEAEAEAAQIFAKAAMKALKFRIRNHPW
In words: IP-MS rep 2. Put shortly:
as §1

For test [3], the target named is T4, AT3G10480.3 NAC050 (Arabidopsis thaliana, UniProt Q9SQX9 1-447, limits assumed).
T4 construct: Endogenous protein found by mass spectrometry
T4 sequence (looked up): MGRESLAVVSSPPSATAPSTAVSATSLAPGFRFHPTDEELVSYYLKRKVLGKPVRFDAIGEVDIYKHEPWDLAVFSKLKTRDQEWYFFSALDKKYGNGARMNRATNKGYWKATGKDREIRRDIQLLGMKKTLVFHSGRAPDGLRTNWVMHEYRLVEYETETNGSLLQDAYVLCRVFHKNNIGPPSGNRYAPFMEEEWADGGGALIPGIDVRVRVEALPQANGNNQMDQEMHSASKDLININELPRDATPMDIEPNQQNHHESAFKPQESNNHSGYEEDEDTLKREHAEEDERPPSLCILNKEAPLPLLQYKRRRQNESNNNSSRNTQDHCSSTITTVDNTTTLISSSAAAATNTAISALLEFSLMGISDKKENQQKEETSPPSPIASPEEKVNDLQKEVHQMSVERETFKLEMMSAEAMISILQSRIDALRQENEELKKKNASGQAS
In words: IP-MS rep 2. The gist of the method: as §1

The target of test [4] is T5, AT3G49850.1 TRB3 (Arabidopsis thaliana, UniProt Q9M2X3 1-295).
T5 construct: Endogenous protein found by mass spectrometry
T5 sequence: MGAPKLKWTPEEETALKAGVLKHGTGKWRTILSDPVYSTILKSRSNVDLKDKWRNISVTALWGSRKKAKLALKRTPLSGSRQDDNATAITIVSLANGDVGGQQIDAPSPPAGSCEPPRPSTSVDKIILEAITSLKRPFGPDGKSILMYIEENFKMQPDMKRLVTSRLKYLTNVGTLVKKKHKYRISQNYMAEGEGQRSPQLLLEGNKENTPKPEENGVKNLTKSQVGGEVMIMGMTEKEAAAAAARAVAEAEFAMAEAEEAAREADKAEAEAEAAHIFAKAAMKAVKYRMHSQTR
In words: IP-MS rep 2. The gist of the method: as §1

In test [5] the target is T6, AT2G17540.2 TRBIP2 (Arabidopsis thaliana).
T6 construct: Endogenous protein found by mass spectrometry
T6 chain: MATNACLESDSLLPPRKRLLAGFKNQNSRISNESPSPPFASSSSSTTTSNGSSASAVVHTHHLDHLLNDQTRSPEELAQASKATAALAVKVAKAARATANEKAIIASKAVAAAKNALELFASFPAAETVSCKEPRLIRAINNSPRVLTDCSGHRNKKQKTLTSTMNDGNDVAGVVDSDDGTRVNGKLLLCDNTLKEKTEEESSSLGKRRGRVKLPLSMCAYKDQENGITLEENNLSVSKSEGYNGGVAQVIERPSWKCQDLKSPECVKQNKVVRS
In words: IP-MS rep 2. The gist of the method:
as §1

Test [6] has as its target T7, AT1G49950.3 TRB1 (Arabidopsis thaliana, UniProt Q8VWK4 1-300, limits assumed).
T7 construct: Endogenous protein found by mass spectrometry
T7 sequence: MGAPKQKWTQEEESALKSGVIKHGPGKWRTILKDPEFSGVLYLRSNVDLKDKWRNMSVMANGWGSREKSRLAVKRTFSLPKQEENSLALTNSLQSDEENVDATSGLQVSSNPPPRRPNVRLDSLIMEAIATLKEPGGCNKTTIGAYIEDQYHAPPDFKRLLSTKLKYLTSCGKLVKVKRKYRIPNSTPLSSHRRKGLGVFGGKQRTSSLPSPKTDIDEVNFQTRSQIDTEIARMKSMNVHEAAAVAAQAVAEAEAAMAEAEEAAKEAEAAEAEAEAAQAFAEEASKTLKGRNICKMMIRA
In words: IP-MS rep 2. The gist of the method:
as §1

Test [7] addresses T2, AT5G08450.1 HDC1. In words: IP-MS rep 1. Put shortly: as §1
The target of test [8] is T3, AT5G67580.1 TRB2. In words: IP-MS rep 1. The gist of the method: as §1
Test [9] deals with T4, AT3G10480.3 NAC050. In words: IP-MS rep 1. The gist of the method:
as §1

The target of test [10] is T5, AT3G49850.1 TRB3. In words: IP-MS rep 1. The gist of the method:
as §1

In test [11] the target is T6, AT2G17540.2 TRBIP2. In words: IP-MS rep 1. Put shortly: as §1
The target in test [12] is T7, AT1G49950.3 TRB1. In words: IP-MS rep 1. Put shortly: as §1

B1: MORC6-FLAG (other, Arabidopsis thaliana, UniProt Q56Y74 1-663, looked up)
chain: MSHDRSVNVSHDAVIAKPERGTMLQSFSPRSHGSKGYSLPQDSEENRGSVGQSAGQSSTSVVDQVRSPADDAGVTSSSTICPAPVCRQFWKAGSYNDELSSKSQQPNGKNYLHVHPMFLHSNATSHKWAFGAVAELLDNAVDEIQNGATFVIVDKTTNPRDGATALLIQDDGGGMDPQAMRHCMGFGFSDKKSDSAIGRYGNGFKTSTMRLGADVIVFSRHSKNQTLTQSIGLLSYTYLTRTGHDRIVVPILDYEFNASAGEFKTLQDREHFISSLSILLEWSPFSTEAELLQQFDDVGPHGTKVIIYNMWLNSDAKLELDFDSVAEDILIEGSIKKTGSKIVNDHIASRFSYSLRVYLSILYLRIPETFKIILRGKVVEHHNVADDLMHPQYILYKPQAAGSEEALVVTTIGFLKEAPKVNLHGFCVYHKNRLIMPFWQVINYSSSRGRGVVGVLEANFVEPTHNKQDFEKTVLLQKLENRLKEMTVEYWSCHCVLIGYQVNKKPRLQIPQKVQPAGRQALSPPPGFQAVFPQGNTTSLPRVSTQPVLLEKRKEHPDSVASAALKRKVGNDDFTVPGHIRVEQFIHGSASQSQDIETVKLMEENKKLRAKCLDRKVRSQNLEVKAMNLRSELENYKSEYERLMVELQALDLVKDEHRRNVNT
notes: not shown: FLAG tag (3xFLAG-BLRP vector described)
On to B1, for which the binding result with PIAL2-Myc is “binds”.

B2: TRBIP1 (bait of the TRBIP1 IP-MS) (other, not shown: small tags and cut ends)
chain: METNPCDMNQLDSDSHLPPRKRLLAGFKKFNSNGINGSSPSDFASSSSTSNSNGSSSASTNVQTHLGNLLSSPFNNDQSPEELVEATRSAAALAVKAAKAARAIANEKALISAKAIAAAKRALELVDSFPKEAMADCKERSPRKNKQKKHVPVELLYSKGQLRDEEDDLARRLHRAIDNTSYPRVLRTSEENGQRYKKQKKNKSVVEGGSSSIIVTGSMKDIAGVVDSDSSYEGLEIARSNRDEADSMLMMEKSGEESNSLVKRRGRVKLKKLPLSICNSRNQENGTSSASPLPVAQPQEDGGAITVIAGSSSWKCQDIKAPECVKQNKAVRS
notes: tag and its position not described; also called TRBIP1-1; TRBIP1-2
B2: the IP-MS count amounted to 2 in the test with AT5G08450.1 HDC1 [1]; 36 with AT5G67580.1 TRB2 [2]; 0 with AT3G10480.3 NAC050 [3]; 19 with AT3G49850.1 TRB3 [4]; 0 in the test with AT2G17540.2 TRBIP2 [5]; 15 with AT1G49950.3 TRB1 [6]. Further, the IP-MS count with AT5G08450.1 HDC1 [7] is 8; with AT5G67580.1 TRB2 [8], 66; with AT3G10480.3 NAC050 [9], 2; with AT3G49850.1 TRB3 [10], 31; with AT2G17540.2 TRBIP2 [11], 0; with AT1G49950.3 TRB1 [12], 39.

The values are drawn from US20250042956A1 (University of California, published 2025).
